The record followed here is PMC6969161, “Rad50 zinc hook functions as a constitutive dimerization module interchangeable with SMC hinge” (Nature Communications, 2020).

In data set [1] the target is T1, human Rad50 (human, UniProt Q92878 1-1312).
T1 construct: Captured by the 3xFLAG tag on anti-FLAG beads, then released by PreScission cleavage, so the tag is absent in the AFM samples; Expressed with Mre11 (and Nbs1) or alone; also called Rad50-3×FLAG; R of MRN, Mre11/Rad50 and M2R2; source: Sf9, baculovirus, purified (anti-FLAG M2 beads, eluted by PreScission cleavage, HiTrapQ, Superdex 200); not shown: 3xFLAG, C-terminal, cleaved
T1 sequence (looked up): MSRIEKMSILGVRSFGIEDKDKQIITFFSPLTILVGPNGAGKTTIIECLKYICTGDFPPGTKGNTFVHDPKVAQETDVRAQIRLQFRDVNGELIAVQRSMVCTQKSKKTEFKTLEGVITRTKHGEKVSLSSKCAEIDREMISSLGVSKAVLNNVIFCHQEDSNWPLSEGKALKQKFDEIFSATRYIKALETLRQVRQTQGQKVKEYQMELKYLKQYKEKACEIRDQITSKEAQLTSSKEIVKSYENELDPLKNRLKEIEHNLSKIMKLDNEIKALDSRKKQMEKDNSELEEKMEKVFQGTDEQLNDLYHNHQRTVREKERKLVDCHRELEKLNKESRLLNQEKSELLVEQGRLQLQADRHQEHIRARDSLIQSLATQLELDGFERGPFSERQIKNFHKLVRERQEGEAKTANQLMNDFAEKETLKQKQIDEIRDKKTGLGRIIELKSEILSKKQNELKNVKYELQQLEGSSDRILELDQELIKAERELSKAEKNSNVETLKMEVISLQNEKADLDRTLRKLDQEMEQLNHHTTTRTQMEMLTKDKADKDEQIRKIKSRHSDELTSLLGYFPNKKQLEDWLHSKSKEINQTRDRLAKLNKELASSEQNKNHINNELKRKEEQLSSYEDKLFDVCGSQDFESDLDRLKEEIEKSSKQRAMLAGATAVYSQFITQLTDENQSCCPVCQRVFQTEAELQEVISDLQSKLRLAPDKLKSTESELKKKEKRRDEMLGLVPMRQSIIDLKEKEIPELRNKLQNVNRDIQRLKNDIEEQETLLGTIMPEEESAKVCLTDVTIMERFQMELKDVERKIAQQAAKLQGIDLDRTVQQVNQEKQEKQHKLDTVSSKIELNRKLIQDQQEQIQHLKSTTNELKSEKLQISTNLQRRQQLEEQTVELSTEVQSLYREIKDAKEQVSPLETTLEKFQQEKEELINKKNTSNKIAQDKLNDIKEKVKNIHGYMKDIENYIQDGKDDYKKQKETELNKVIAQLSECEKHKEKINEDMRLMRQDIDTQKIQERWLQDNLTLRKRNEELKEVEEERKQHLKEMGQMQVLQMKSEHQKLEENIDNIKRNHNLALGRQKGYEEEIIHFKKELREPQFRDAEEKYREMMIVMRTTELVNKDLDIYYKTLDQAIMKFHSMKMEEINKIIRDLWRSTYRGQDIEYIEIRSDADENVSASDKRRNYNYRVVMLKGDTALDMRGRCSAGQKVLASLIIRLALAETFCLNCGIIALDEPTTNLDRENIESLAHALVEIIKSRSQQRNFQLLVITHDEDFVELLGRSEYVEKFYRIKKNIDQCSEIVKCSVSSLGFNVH
Description: co-purification (anti-FLAG affinity, ion exchange, size exclusion); proteins co-expressed in Sf9 cells; extract at 200 mM KCl on anti-FLAG M2 beads by Rad50-3×FLAG, eluted by PreScission cleavage, HiTrapQ; wild-type Mre11/Rad50 further on Superdex 200; molar ratio from the purified preparations. Particulars: partners not purified. On the technique in general: SEC sorts molecules by how far they enter the pores of the column.

Data set [2] deals with the molecule itself. Description: high-speed AFM; purified complexes on bare mica, imaged in 25 mM Tris-HCl pH 7.5, 75 mM KCl, 3 mM MgCl2, tapping mode; with or without 1 mM ATP or ATP-γ-S.

B1: human Mre11 (natural protein, UniProt P49959 1-708, looked up)
chain: MSTADALDDENTFKILVATDIHLGFMEKDAVRGNDTFVTLDEILRLAQENEVDFILLGGDLFHENKPSRKTLHTCLELLRKYCMGDRPVQFEILSDQSVNFGFSKFPWVNYQDGNLNISIPVFSIHGNHDDPTGADALCALDILSCAGFVNHFGRSMSVEKIDISPVLLQKGSTKIALYGLGSIPDERLYRMFVNKKVTMLRPKEDENSWFNLFVIHQNRSKHGSTNFIPEQFLDDFIDLVIWGHEHECKIAPTKNEQQLFYISQPGSSVVTSLSPGEAVKKHVGLLRIKGRKMNMHKIPLHTVRQFFMEDIVLANHPDIFNPDNPKVTQAIQSFCLEKIEEMLENAERERLGNSHQPEKPLVRLRVDYSGGFEPFSVLRFSQKFVDRVANPKDIIHFFRHREQKEKTGEEINFGKLITKPSEGTTLRVEDLVKQYFQTAEKNVQLSLLTERGMGEAVQEFVDKEEKDAIEELVKYQLEKTQRFLKERHIDALEDKIDEEVRRFRETRQKNTNEEDDEVREAMTRARALRSQSEESASAFSADDLMSIDLAEQMANDSDDSISAATNKGRGRGRGRRGGRGQNSASRGGSQRGRADTGLETSTRSRNSKTAVSASRNMSIIDAFKSTRQQPSRNVTTKNYSEVIEVDESDVEEDIFPTTSKTDQRWSSTSSSKIMSQSQVSKGVDFESSEDDDDDPFMNTSSLRRNRR
notes: Mre11, human, from human MRE11 cDNA in pFASTBAC1; also called M of MRN, Mre11/Rad50 and M2R2; source: Sf9, baculovirus, co-purified with Rad50-3×FLAG (anti-FLAG M2 beads, HiTrapQ, Superdex 200)
Regarding B1, the “stoichiometry N” value in data set [1] is ~1 Rad50 to Mre11, molar ratio.

B2: S. pombe Rad50 (natural protein, UniProt Q9UTJ8 1-1285, looked up)
chain: MSCIDRMSIMGIRSFDNRSRESIQFFSPLTLIVGQNGSGKTTIIECLKYATTGILPPNTKGGAFIHDPKICGEKEVLAQVKLAFRNTNQVKMICTRSLQLSVKKTTRQQKTLDGQLLILKDNERTTISNRCAELDSQVPLSLGVSKALLDYVIFCHQEESFWPLSEPANLKKRFDEIFESLRYAKALDQIKGLKRDQETQVKVDQATLTHYRSDKERAEKIELRVHESLKRISCIRSKVEELDQEITETARLQDELFKSTEEYEQQMITIRHLESQSDIINTTINDLKSQMTITDESSEDLEKLHSNFAEKVKEEQELYKSLEKKRSDLESLLKSRRELLEKLTGDLGKIQGEIESLEKLKVKKSTMINEIVHRYNINEINEEGIMTEVSKYASLVNKNYEISSGKLKERQVAVRARIEGIKAHEMFLNNRVSEINSSLEKQLTTQKELRSRFEILFPVKLQREDFTKDVEKSDLWIKSLRQEYESKNLLELLDKHQTALSSVENRLDEISEIVDSYHKYSGVRTKLQVFEENKTNKSAILANQLMTLKSSFSEVMSYELKDDDNYNEELDKLVEDVRKKLQEKEEAESSLRSVRERLEIRISLSVQSINDLTENKKIKTKTLKSYSGTFASMISEIKALESEIEENRKTLHSLQFGSTFYEKAIEICVDQHACQLCQRSLDKEEEKLFVEHCHSMIDVIPSKSAEVYSHLETLTKTFKNLSEAKPIFDEIELLDKRLSETKTELSDLQGDLQGLDIRKDEIQSELDTLYLRRANLEKLQLLVKDISNLEEEIRTIDRETEVLRIELPSSIAHHNLDEIYAEREKLLEKRGYLRKQIERTKLEETSFKKKIDDAVLANNEQKLKLTKLNFQVNELEQLEKDINKSSEDCDLQKKKLLEVSSKQGSQAPFLNELESEYEKLEADIQEMAQKSRTEILEANEYLHQLNEWNSELRIDVSTKFKCIKEKKSNIGEEVRIIASKIESTDDNLRKLQERLADLRTRERNASDNLRLRALMRQLEEAVTQKNYLLSQQSHDDRESFRERMQILKSKYGALNAERAGLLGECKQLENSITKDKEELNMEFKDADERFRRQLIKTKTTGKANEDLGKYAKALDVAIMQLHSMKMNEINRIVDELWKQTYCGTDIDTILIRSDSEGKGNRTYNYRVCMVKGDAELDMRGRCSAGQKVLACIIIRLALAECLGVNCGILALDEPTTNLDEENICSLAKNLSRIVEFRRKQANFQLIVITHDEQFIRLVNSDAYCSYYYRVKRDTNQKSMIVKEPL
notes: Rad50, S. pombe; The host is a wild-type strain, so endogenous Rad50 and Mre11 were also present; also called fission yeast Rad50; rad50:TEV:PA; source: S. pombe CA3, from pREP1-rad50:TEV:PA, co-purified with Mre11-3xFLAG (anti-FLAG M2 agarose, HRV3C elution, Superose 6HR)
On to B2, for which the binding result in data set [2] is on record as “binds”.

B3: E. coli SbcC (natural protein)
chain: not shown
notes: SbcC (E. coli Rad50), E. coli; also called E. coli Rad50; SbcC of SbcCD; source: E. coli DL776 with plasmid pDL761, purified as SbcCD (HiTrap DEAE, ammonium precipitation, Superose 6, Mono Q)
Turning to B3, in data set [2], the binding result is recorded as “binds”.
